Results: the supplement of paper PMC10567573

B1: PWWP2B (parent)
chain: TIRLRPRQVLCEKCKSTLSPPEAS
B2: ZNF232 (parent)
chain: FPKSEQVYLHFLSVVTEDGPEPKD

Variants of: B1
Assay: protein stability index of a GFP-peptide fusion (GPS, HEK-293T) (PSI 1-6); higher = more stable
Conditions: c terminus: a fixed tail appended
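Further: lentivirally expressed fusions sorted by FACS into six bins by GFP to DsRed ratio, PSI derived from sequencing read proportions per bin multiplied by bin number.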

Protein stability index, by site and new letter:
S24: K 2.7 | L 2.66 | F 2.36 | H 2.63 | R 3.02 | I 2.78 | T 3.25 | W 1.93 | N 2.98 | Q 3.09 | M 1.97 | G 2.6 | V 2.62 | C 2.99 | D 3.44 | A 2.64 | E 3.28 | Y 2.89 | P 2.9
E22: N 2.46 | A 2.66 | W 1.94 | M 2.4 | I 2.09 | Q 2.58 | F 2.02 | Y 2.31 | D 3.41 | T 3.15 | R 2.32 | H 2.34 | V 3.18 | P 2.69 | S 2.81 | C 2.42 | L 2.85 | G 2.18 | K 2.62
P20: C 2.87 | Q 3.03 | T 2.76 | M 2.55 | Y 2.42 | L 2.41 | G 3.29 | D 3.5 | F 2.26 | A 2.79 | H 2.24 | S 2.79 | W 2.45 | N 2.63 | E 3.22 | K 2.66 | V 2.9 | R 2.65 | I 2.44
A23: G 2.87 | K 3.02 | S 2.75 | W 1.96 | I 2.61 | H 2.83 | T 2.99 | Q 3.94 | C 3.15 | N 3.12 | F 2.43 | P 3.3 | E 3.49 | V 2.91 | Y 2.47 | R 2.73 | M 3.01 | D 3.54 | L 2.47
S19: P 3.16 | G 2.29 | L 2.72 | D 3.68 | I 3.35 | M 2.74 | Y 2.94 | Q 3.01 | N 3.25 | V 3.18 | H 2.68 | E 3.32 | C 2.99 | W 1.84 | F 2.83 | T 2.37 | K 2.56 | R 2.59 | A 3.02
L18: V 3.18 | P 3.94 | Y 2.83 | Q 3.05 | S 2.87 | T 3.08 | N 3.63 | W 1.96 | R 2.49
P21: F 2.56 | M 2.73 | W 2.35 | K 3.21 | G 2.78 | E 3.63 | N 2.95 | D 3.89 | C 2.72 | I 2.67 | T 2.69 | Q 2.98 | L 2.08 | A 3.29 | R 2.72 | Y 2.42 | V 2.95 | S 3.5 | H 2.79

Variants of: B2
Assay: as above
Conditions: c terminus: a fixed tail appended

Protein stability index: each site, then its substitutions
S4: H 2.26 | G 1.66 | L 1.78 | I 2.58 | N 3.06 | P 1.95 | D 2.24 | A 1.77 | M 2.35 | V 1.61 | K 1.89 | R 1.66 | Y 3.17 | W 2.14 | Q 2.29 | C 1.74 | F 2.49 | T 2.34 | E 2.95
Q6: D 2.87 | P 1.92 | N 2.07 | E 2.6 | C 2.19 | A 2.3 | K 1.86 | H 1.88 | V 1.21 | L 2.18 | F 1.9 | T 2.37 | R 1.85 | S 1.41 | Y 1.47 | M 1.6 | I 2.23
F11: W 2.08 | H 2.99 | L 2.41 | S 2.65 | A 2.49 | P 3.74 | R 2.83 | K 3.17 | N 3.18 | E 4.55 | Y 2.29 | D 3.73 | M 2.06 | G 3.61 | C 1.76 | T 2.27
V7: Y 1.02 | N 2.27 | M 3.74 | H 1.61 | T 2.1 | E 2.8 | D 1.91 | C 1.63 | L 2.32 | P 2.97 | Q 1.88 | S 2.59 | A 2.2 | I 1.97 | R 2.49 | K 3.21 | F 1.68
H10: R 4.1 | I 1.26 | C 2.81 | V 1.94 | D 3.04 | A 3.29 | P 1.94 | S 1.95 | E 3.46 | K 2.73 | G 2.24 | Q 2.36 | M 2.65
L12: K 3.6 | V 2.48 | S 2.75 | H 3.49 | C 2.07 | F 1.73 | T 2.58 | M 3.84 | W 1.21 | E 3.96 | Q 3.99 | I 1.97 | D 3.67 | P 2.34 | N 3.61 | G 3.24
S13: G 1.5 | K 2.48 | L 1.76 | D 3.54 | M 1.96 | N 2.46 | E 2.98 | F 1.66 | C 2.31 | Q 1.53 | A 1.89 | P 2.14 | H 1.81
K3: G 3.07 | Q 2.12 | Y 2.02 | W 1.95 | N 2.71 | M 2.69 | S 2.7 | P 2.46 | E 3.36 | H 2.09 | I 2.23 | V 2.33 | D 2.35 | C 2.51 | A 2.85 | T 2.75 | L 3.27 | F 2.61
F1: H 3.88 | C 4.31 | R 3.89 | S 3.69 | W 3 | Y 2.01 | I 3.73 | K 4.44 | L 3.95 | D 4.86 | A 4.31 | G 3.98 | V 3.92 | P 4.28 | M 4.15 | Q 4.75 | T 4.05 | N 4.29 | E 4.82
P2: M 2.28 | N 2.8 | Y 2.89 | Q 2.14 | F 2.37 | E 4.04 | I 2.72 | G 2.78 | C 2.75 | K 2.91 | L 2.29 | H 1.54 | D 3.92 | A 1.91 | V 2.26 | W 2.44 | T 2.68
L9: S 2.32 | V 1.71 | Q 2.78 | H 2.53 | T 2.62 | R 2.11 | E 3.54 | F 1.73 | K 2.5 | M 1.29 | Y 2.53 | P 2.58 | W 1.71 | I 1.83
Y8: V 1.98 | H 2.31 | N 2.01 | L 2.14 | G 2.15 | F 1.88 | C 2.49 | A 2.46 | D 3.55 | I 2.27 | P 3.14 | W 2.2 | T 2.13 | E 3.09 | Q 3.33
E5: V 2.58 | S 1.7 | A 2.29 | C 1.65 | D 2.84 | K 3.34 | W 2.02 | G 1.61 | Q 1.9 | Y 1.19 | P 1.75 | I 2.23 | H 2.31 | L 2.47 | F 2.35 | T 1.59 | M 2.04
